Experimental data published in the supplement of paper PMC9170038.

System: MS2 coat protein
Experiment: apparent KD of MS2 coat protein; designed switch direction (-1 OFF switch, 1 ON switch): -1; higher = weaker reporter binding
Procedure, shortened: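 The buffer was Tris-HCl pH 7.5 with KCl, MgCl2, BSA, DTT, tRNA and Tween-20. In it, SNAP-549-labelled MS2 coat protein was titrated in doubling steps from 0.7 or 1.5 nM to 3 µM over chip-bound RNA switches transcribed by stalled E. coli RNA polymerase on Illumina chips. Apparent KD is the per-design median over clusters of curve fits to normalised fluorescence.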

[1] = input ligand: microRNA oligo, concentration not stated
[2] = Eterna round: R95, input ligand: FMN 200 uM
[3] = Eterna round: R95, input ligand: microRNA oligo, concentration not stated
[4] = Eterna round: R95, input ligand: none

Sequence: GCUCGCGGGCAAGGAUAUCCCACGCUGUUCUGGCCCGUGUCUGUUACAUGAGGAUCACCCAUGUGGGAGAAGGUGCACCAGGGC [Design 45] (Eterna round: R96, puzzle: Exclusion NG 2)
- apparent KD of MS2 coat protein (input ligand: FMN 200 uM): 115 nM
- apparent KD of MS2 coat protein [1]: 26.8 nM
- apparent KD of MS2 coat protein (input ligand: none): 44.1 nM

Sequence: AAGAUGCGGAUAGGAUAUGGAAAGAAAAGAAAAUUAGAAGGGUUGGUUAAAAUACAUGAGGAUCACCCAUGUGAAUCAUGAGAA [AK ExNG1-2] (Eterna round: R96, puzzle: Exclusion NG 1)
- apparent KD of MS2 coat protein (input ligand: FMN 200 uM): 132 nM
- apparent KD of MS2 coat protein [1]: 89.8 nM
- apparent KD of MS2 coat protein (input ligand: none): 99.9 nM

Sequence: UCUUAGUCAGGAUAUACAUGAGGAUCACCCAUGUAAAAUUUUAAUUUAAUUUUAAGGUGUAGAAGGGACCACCC [Ex3 #17] (Eterna round: R97, puzzle: Exclusion 3)
- apparent KD of MS2 coat protein (input ligand: FMN 200 uM): 33.2 nM
- apparent KD of MS2 coat protein (input ligand: none): 37.5 nM

Sequence: ACUUGCUAUUUGCUCGUCUUAUCCUUGUUUGUUUACUAUACAUGAGGAUCACCCAUGUUAUAUUUAAGGGUGUGAUA [JR_SV3TOV2_Sub075] (puzzle: Sensor v3, turn-off variant 2)
- apparent KD of MS2 coat protein [2]: 141 nM
- apparent KD of MS2 coat protein [3]: 322 nM
- apparent KD of MS2 coat protein [4]: 166 nM

Sequence: GUGAAGUAAGGAUAUACAUGAGGAUCACCCAUGUAAGGGAAGGUGAUGGGAGUAGAUAGUAGAAGGUACGAGGA [JR_Exclu3_Sub066] (puzzle: Exclusion 3)
- apparent KD of MS2 coat protein [3]: 103 nM

Sequence: GGUUGGCGAGGAUAUACAUGAGGAUCACCCAUGUGAGAGAAAAAAGUGAGGAAGAAAAGUAGAAGGCGCUGACG [salish99-ex3-14] (Eterna round: R96, puzzle: Exclusion 3)
- apparent KD of MS2 coat protein (input ligand: FMN 200 uM): 354 nM
- apparent KD of MS2 coat protein [1]: 105 nM
- apparent KD of MS2 coat protein (input ligand: none): 84 nM

Sequence: UAGAUACAUGAGGAUCACCCAUGUGAGGAUAUGAGUCAGUCACGGUGACGUGGCUGACUCAGAAGGCACAAAGG [Mat - Exclusion 1 - JL Mod - D36] (Eterna round: R97, puzzle: Exclusion 1)
- apparent KD of MS2 coat protein (input ligand: FMN 200 uM): 365 nM
- apparent KD of MS2 coat protein (input ligand: none): 202 nM

Sequence: AGAUGGCGAGGAUAUACAUGAGGAUCACCCAUGUGAGAAUAGAAAGUGAGGAAGAAAAGUAGAAGGCGCUGUCA [Mat - Exclusion 3 - Mod of Salish D22] (puzzle: Exclusion 3)
- apparent KD of MS2 coat protein [2]: 125 nM
- apparent KD of MS2 coat protein [3]: 59.7 nM
- apparent KD of MS2 coat protein [4]: 73.4 nM

Sequence: CGCCGAGUGUUAGGAUAUCACAAGCAUCAGCGGUGAGAAGGAACAUGAGGAUCACCCAUGUACUGUCCCAUAAGGACAGGUUUC [Geestiza] (Eterna round: R96, puzzle: Exclusion NG 1)
- apparent KD of MS2 coat protein (input ligand: FMN 200 uM): 82.7 nM
- apparent KD of MS2 coat protein [1]: 40.9 nM
- apparent KD of MS2 coat protein (input ligand: none): 60.8 nM

Sequence: AGUUGUUGUUUCCGUUCUUACAUGAGGAUCACCCAUGUUUCUUGUCGUGCUCGCGUUGCUCGUCAGACUUCCUGUUG [salish99_TOv1_r3_066] (puzzle: Sensor v3, turn-off variant 1)
- apparent KD of MS2 coat protein [2]: 77.3 nM
- apparent KD of MS2 coat protein [3]: 93.1 nM
- apparent KD of MS2 coat protein [4]: 121 nM

Sequence: CUUUUGUGAGGAUAUUAGUAGUAAAUAAAUAAAAUUUCUACUGAGAAGGCACAUGAGGAUCACCCAUGUUCCUC [salish99_ex4_r3_061] (Eterna round: R96, puzzle: Exclusion 4)
- apparent KD of MS2 coat protein (input ligand: FMN 200 uM): 347 nM
- apparent KD of MS2 coat protein [1]: 34 nM
- apparent KD of MS2 coat protein (input ligand: none): 33.9 nM

Sequence: UAUAACCGAGGAUAUACAUGAGGAUCACCCAUGUAAUGUAGUAUAAUGUAUGUAAGAUGUAGAAGGUGGGAUGU (Eterna round: R97, puzzle: Exclusion 3)
- apparent KD of MS2 coat protein (input ligand: FMN 200 uM): 56.2 nM
- apparent KD of MS2 coat protein (input ligand: none): 45.2 nM

Sequence: AUGAGUUGAGGAUAUACGUGAGGCGUUAACGCCGCCAGUCAACAUGAGGAUCACCCAUGUAGAAGGCAACCGUC [Eternabot (L1) Solution 6] (Eterna round: R97, puzzle: Exclusion 2)
- apparent KD of MS2 coat protein (input ligand: FMN 200 uM): 22.1 nM
- apparent KD of MS2 coat protein (input ligand: none): 19.7 nM

Sequence: UGUUGUUACGUAGGAUAUUGUCAACAGGCAAUAGGAUAUGCGAAAGCAGAAGGAUCGCCAACAGGCGAGAAGGACGGGUUAACA [pwkr exNG2 2xF7 2xFMN.2] (Eterna round: R96, puzzle: Exclusion NG 2)
- apparent KD of MS2 coat protein (input ligand: FMN 200 uM): 849 nM
- apparent KD of MS2 coat protein [1]: 771 nM
- apparent KD of MS2 coat protein (input ligand: none): 134 nM

Sequence: AUCUGCACGCUGCGGUCCUACAUGAGGAUCACCCAUGUGGUCUGGUGGCGUGGGUCGCCGGACUUGGCUCGUCUUGG [salish99_S_TOV1_R5_050] (Eterna round: R97, puzzle: Sensor, turn-off variant 1)
- apparent KD of MS2 coat protein (input ligand: FMN 200 uM): 15.4 nM
- apparent KD of MS2 coat protein (input ligand: none): 15.2 nM

Sequence: ACAUGAGGAUCACCCAUGUCCGGCUGGUCUGGUCCGGCUGUCGAGGAUAUAGUCCGGUGUUCGCGCUAGAAGGCGAGGGCUGGA [Aenatbe mod 49] (Eterna round: R96, puzzle: Exclusion NG 3)
- apparent KD of MS2 coat protein (input ligand: FMN 200 uM): 109 nM
- apparent KD of MS2 coat protein [1]: 68.3 nM
- apparent KD of MS2 coat protein (input ligand: none): 97.5 nM

Sequence: GCACGGUAAUUCCAUAAAACCACAUGAGGAUCACCCAUGUCUCAGGAUAUGGUCUGGAUUACAGGCCAGAAGGGAGAGCCGUGC [Eli exng3 - 060] (Eterna round: R96, puzzle: Exclusion NG 3)
- apparent KD of MS2 coat protein (input ligand: FMN 200 uM): 10.4 nM
- apparent KD of MS2 coat protein [1]: 8.88 nM
- apparent KD of MS2 coat protein (input ligand: none): 13.3 nM

Sequence: UAUUCUAGAUAGGAUAUACUUUAUUUUUUUUUCGUAGAAGGAUCUACAUGAGGAUCACCCAUGUUAACAGCAGU [JR_E6_Sub009] (puzzle: Exclusion 6)
- apparent KD of MS2 coat protein [3]: 50.5 nM

Sequence: GCGUCGAGUGUGAGGAUAUGCUGGUCCUUGGAUCAGCAGAAGGCACAUGAGGAUCACCCAUGUGAAUACGAUGC [JL bmx4 3.14] (puzzle: Brourd's mod of Exclusion 4)
- apparent KD of MS2 coat protein [3]: 21.2 nM

Sequence: CUCUUAUCUUAGGAUAUUUUACCGCAAGUGGUGGGAGAAGGGAGCACAUGAGGAUCACCCAUGUUAGCUGGGCU [Eternabot (L2) Solution 19] (Eterna round: R97, puzzle: Exclusion 6)
- apparent KD of MS2 coat protein (input ligand: FMN 200 uM): 22.1 nM
- apparent KD of MS2 coat protein (input ligand: none): 20.5 nM

Sequence: AAAAGGUAAGGAUAUACAUGCCCAAAACACGUCCUCAGUCCACAUGAGGAUCACCCAUGUAGAAGGUACGAAAA [Ribiesdi] (Eterna round: R97, puzzle: Exclusion 2)
- apparent KD of MS2 coat protein (input ligand: FMN 200 uM): 285 nM
- apparent KD of MS2 coat protein (input ligand: none): 93.2 nM

Sequence: UUAAAUCAUGUAGGAUAUGGAAGGCGAACCUAUCCAGAAGGACAUGAGGAUCACCCAUGUGCUGCGUUGUCCGUAGACAGCGCU [Ex NG1 #1] (Eterna round: R96, puzzle: Exclusion NG 1)
- apparent KD of MS2 coat protein (input ligand: FMN 200 uM): 114 nM
- apparent KD of MS2 coat protein [1]: 29.5 nM
- apparent KD of MS2 coat protein (input ligand: none): 36.2 nM

Sequence: CUCAGGUCAGGAUAUGUAGACCGGUGCAGACACUACGGGAAACAGAAGGGACAUGAGGAUCACCCAUGUUCGUA [EX4 B.11] (Eterna round: R97, puzzle: Exclusion 4)
- apparent KD of MS2 coat protein (input ligand: FMN 200 uM): 45 nM
- apparent KD of MS2 coat protein (input ligand: none): 30.4 nM

Sequence: GUAGAGUCAGGAUAUACAAGAUCGAAAGAUCGGCGGUCCAUACAUGAGGAUCACCCAUGUAGAAGGGACUCUAC [Eli x2 4.005] (Eterna round: R97, puzzle: Exclusion 2)
- apparent KD of MS2 coat protein (input ligand: FMN 200 uM): 619 nM
- apparent KD of MS2 coat protein (input ligand: none): 30.2 nM

Sequence: UUGUUAUAUGUAGGAUAUGCGUGUUAUUGUUAGGCAGAAGGACAUGAGGAUCACCCAUGUAUGUUGUUGUUAUAUAUUAUAUAU [Title] (Eterna round: R96, puzzle: Exclusion NG 1)
- apparent KD of MS2 coat protein (input ligand: FMN 200 uM): 41.9 nM
- apparent KD of MS2 coat protein [1]: 21.2 nM
- apparent KD of MS2 coat protein (input ligand: none): 34.4 nM

Sequence: UCCAACCCUGUGAGGAUAUCGUCCAUUUUUUGUUCCGAGAAGGCACAUGAGGAUCACCCAUGUUUUUUAUUUUU [JR_BMOE4_Sub078] (puzzle: Brourd's mod of Exclusion 4)
- apparent KD of MS2 coat protein [3]: 34.9 nM

Sequence: UCGCUGCGAGGAUAUACAUGAGGAUCACCCAUGUGCGGGUCCGGGUUUUCGUCCAUUAGUAGAAGGCGCAGUGA [JL Laongeedie mod 3] (puzzle: Exclusion 3)
- apparent KD of MS2 coat protein [3]: 269 nM

Sequence: GCAGCAACUCUAACUAACUAAACAUGAGGAUCACCCAUGUCUCAGGAUAUGGUCUGGAUUACAGGCCAGAAGGGAGAAAGCUGC [Eli exng3 - 039] (Eterna round: R96, puzzle: Exclusion NG 3)
- apparent KD of MS2 coat protein (input ligand: FMN 200 uM): 12.6 nM
- apparent KD of MS2 coat protein [1]: 10.9 nM
- apparent KD of MS2 coat protein (input ligand: none): 14.5 nM

Sequence: GGUCAGACGGUAGGAUAUCCAUAUCGAGUGACCUUUUCAUAACAUGAGGAUCACCCAUGUCGGUGGGAGAAGGGCCGUACGGCG [salish99_ExNG02_R04_004] (Eterna round: R96, puzzle: Exclusion NG 2)
- apparent KD of MS2 coat protein (input ligand: FMN 200 uM): 114 nM
- apparent KD of MS2 coat protein [1]: 78.2 nM
- apparent KD of MS2 coat protein (input ligand: none): 93.2 nM

Sequence: GAAAACGAAGAGGAUAUUUGAUAUCAUAGCUUCAAAGAAGGCUUCACAUGAGGAUCACCCAUGUGAUCUUCAAA [jl-ex6-4.06 ViennaUCT mod] (Eterna round: R97, puzzle: Exclusion 6)
- apparent KD of MS2 coat protein (input ligand: FMN 200 uM): 95.8 nM
- apparent KD of MS2 coat protein (input ligand: none): 22.7 nM

Sequence: CGGGAGGGACAAGCUGUUUGCACGUCUGGUAGUGAUGCAACAUGAGGAUCACCCAUGUAUAGGGUGUGAGAGGAUGG [JR_SV3TOV2_Sub050] (puzzle: Sensor v3, turn-off variant 2)
- apparent KD of MS2 coat protein [2]: 47.1 nM
- apparent KD of MS2 coat protein [3]: 89.6 nM
- apparent KD of MS2 coat protein [4]: 107 nM

Sequence: UAUUAAACAAGCAGGUCCCACAUGAGGAUCACCCAUGUGCUCGUCUUAUAACGAUCUGUGGGAAAACCUACGGAUCG [Elimod 18 - Jieux - Sensor, turn-off variant 1] (Eterna round: R97, puzzle: Sensor, turn-off variant 1)
- apparent KD of MS2 coat protein (input ligand: FMN 200 uM): 37.7 nM
- apparent KD of MS2 coat protein (input ligand: none): 45.1 nM

Sequence: CGUGCGUAUGUGAGGAUAUGCUGGUCCUUGGCUCGGCAGAAGGCACAUGAGGAUCACCCAUGUGGUGUCGUACU [salish99_Bmod_ex4_069] (Eterna round: R96, puzzle: Brourd's mod of Exclusion 4)
- apparent KD of MS2 coat protein (input ligand: FMN 200 uM): 291 nM
- apparent KD of MS2 coat protein [1]: 61.1 nM
- apparent KD of MS2 coat protein (input ligand: none): 67.5 nM
